Measurements as given in patent US20240181073A1, “Antibody-Drug Conjugates Comprising an Anti-BCMA Antibody” (Sorrento Therapeutics, Inc., priority 2021, published 2024).

B1: BCMA-AB1-3: Compound 3 conjugated with anti-BCMA antibody clone BCA7-2C5 (AB1) (conjugate)
VH: EVQLVESGGGLVKPGGSLRLSCAASGFTSSTAWMSWVRQAPGKGLEWVGRIKSKSDGGTTDYAAPVKGRFTISRDDSKNTLFLQMNSLKTEDTAVYYCAKGGGTYGYWGQGTTVTVSS
VL: QSVLTQPASVSGSPGQSVTISCTGTSSAHGGHYYVSWYQQHPGKAPKLMIYDVSNRPSGVSNRFSGSKSGNTASLTISGLQAEDEADYYCGSYTSSGSYVFGTGTKLTVL

What was measured:
[1] = tested on: NCI-H929 (BCMA+) cells and K562 (BCMA −) cells; test: In vitro cytotoxicity assay, Example B2, statements across all cell lines; type: cell-based, human; details: regardless of BCMA expression level; read-out: average EC50, inhibition of cell proliferation across all cell lines
Protocol: The in vitro efficacies of ADCs anti-BCMA-Compound 50, anti-BCMA-Compound 51, anti-BCMA-Compound 52, and anti-BCMA-Compound 53, were compared to anti-BCMA-Compound 3. Anti-BCMA-AB1 clone was conjugated with compounds 50, 51, 52, 53 or 3 and the ADCs were evaluated using the following human cancer cell lines: BCMA-negative K562 and BCMA-positive NCI-H929, purchased from the American Type Culture Collection (ATCC; Manassas, VA). […]
The in vitro assays were performed as follows: All cells were harvested by removal of a portion of the cell culture suspension followed by centrifugation at 300 g for 5 minutes, followed by resuspension in cell culture medium (described above in Cell Culture method), viable cell count (as described above in Cell Culture method), and then seeded into 384-well white wall clear bottom plates (Catalog #3765, Corning) at a density of 2,500 cells/well in growth media. […] After treatment, cell viability was determined by CellTiter-Glo 2.0 assay (Catalog #G9243; Promega; Madison, WI, USA) based on the manufacturer's instructions. CellTiter Glo reagent reacts with ATP in metabolically active cells to give a luminescent readout that is directly proportional to the number of viable cells. […] Luminescence was measured using a Tecan Spark microplate reader (Tecan; Mannedorf, Switzerland). […]

[2] = tested on: BCMA-negative K562; test: In vitro cytotoxicity assay (CellTiter-Glo 2.0, 384-well), Example B2; type: cell-based, human
Protocol: (§1) The in vitro efficacies of ADCs anti-BCMA-Compound 50, anti-BCMA-Compound 51, anti-BCMA-Compound 52, and anti-BCMA-Compound 53, were compared to anti-BCMA-Compound 3. Anti-BCMA-AB1 clone was conjugated with compounds 50, 51, 52, 53 or 3 and the ADCs were evaluated using the following human cancer cell lines: BCMA-negative K562 and BCMA-positive NCI-H929, purchased from the American Type Culture Collection (ATCC; Manassas, VA).
(§2) Cell Culture Method: The cell lines were cultured in RPMI-1640 medium (Catalog #10-041-CV: Corning) supplemented with 10-20% fetal bovine serum (FBS; Catalog #MT35011CV; Corning) and 1× penicillin-streptomycin (Catalog #30-002-Cl, Corning) and maintained at 37° C. in a 5% C02 humidified environment. Viable cell counts were made by Trypan blue exclusion using a Countess or Countess II automated cell counter.
(§3) The in vitro assays were performed as follows: All cells were harvested by removal of a portion of the cell culture suspension followed by centrifugation at 300 g for 5 minutes, followed by resuspension in cell culture medium (described above in Cell Culture method), viable cell count (as described above in Cell Culture method), and then seeded into 384-well white wall clear bottom plates (Catalog #3765, Corning) at a density of 2,500 cells/well in growth media. Plates were maintained at 37° C. The outer wells of plates contained medium only and were used for background subtraction for the cell viability assay. Working solutions of test articles were prepared at 2× final concentrations with 5-fold serial dilutions in complete growth medium. Cell treatment was performed in either technical triplicates or duplicates and maintained at 37° C. for 120-hour assay. After treatment, cell viability was determined by CellTiter-Glo 2.0 assay (Catalog #G9243; Promega; Madison, WI, USA) based on the manufacturer's instructions. CellTiter Glo reagent reacts with ATP in metabolically active cells to give a luminescent readout that is directly proportional to the number of viable cells. Briefly, plates were removed from the incubator and equilibrated to room temperature before addition of CellTiter Glo reagent. Luminescence was measured using a Tecan Spark microplate reader (Tecan; Mannedorf, Switzerland).
(§4) Data Analysis: For Cytotoxicity assays, raw luminescence data was background subtracted with average luminescence from the outer wells containing medium only and normalized to untreated controls using Excel (Microsoft; Albuquerque, NM). Dose-response relationships and EC50 values were determined based on non-linear regression analysis of normalized data fit to a four-parameter logistic equation using GraphPad Prism 8.0.

[3] = tested on: BCMA-positive NCI-H929; test: as above; type: cell-based, human
Protocol: as §1, §2, §3, §4

[4] = tested on: NCI-H929 tumor xenograft; test: In vivo efficacy, NCI-H929 tumor xenograft in SCID beige mice; set-up: species or system CB17 SCID beige mice; details: for tumor growth: i.p.
Protocol: (§5) Female CB17 SCID beige mice, 6 weeks of age, were purchased from Charles River Laboratories.
(§6) Human multiple myeloma tumor cell lines NCI-H929 and OPM2 were cultured and expanded in RPMI 1640 medium supplemented with 10% FBS, 100 units/ml of penicillin and 100 μg/ml of streptomycin at 37° C. in a 5% CO2 humidified environment for a period of 2-3 weeks before harvesting for implantation. Cell viability determined by Trypan blue dye exclusion assay was >90% before implantation. 5 million of OPM2 or NCI-H929 cells in 100 μl of PBS—Matrigel 1:1 (v/v) mixture were inoculated to the right upper flank of each mouse by s.c. injection.
(§7) Tumor volume measurement was started at day 14 after tumor cell inoculation and performed twice weekly. The longest longitudinal diameter as length and the widest transverse diameter as width were measured by using a digital caliper. Tumor volume (TV) were then calculated by the formula: TV=[length×(width)^2]/2 and were analyzed in Excel.
(§8) The treatment was started when average tumor size reaches ˜400, 200 and 150 mm^3 for NCI-H929 tumor xenografts in Experiment I, III and IV, respectively, or ˜240 mm^3 for OPM2 tumor xenograft in Experiment I.
Mice were euthanized when tumor size reached 2000 mm^3.
After tumor-bearing mice were randomized, anti-BCMA antibody (BCMA-AB1 or BCMA-AB2), anti-BCMA antibody conjugate with Compound 3 (BCMA-AB1-3 or BCMA-AB2-3) or iso-type antibody conjugate with Compound 3 (iso-3) diluted in PBS were administered to mice through i.p. injections. Treatment regimens included 8 mg/kg once, 4 mg/kg Q1W×2 and 2 mg/kg biw×4 of anti-BCMA-AB1 or anti-BCMA-AB1-Compound 3 in Experiment I (FIG. 3); 2 mg/kg biw×4 and 0.67 mg/kg biw×4 of anti-BCMA-AB1 or anti-BCMA-AB1-Compound 3 in Experiment II (FIG. 4); 1, 2, 4, and 8 mg/kg once of anti-BCMA-AB1-Compound 3 or iso-3 in Experiment III (FIG. 5); and 4 mg/kg biw×4 of anti-BCMA-AB2 or 2 and 4 mg/kg biw×4 of anti-BCMA-AB2-Compound 3 in Experiment IV (FIG. 6).
Raw data of tumor measurements were analyzed in Excel. Tumor growth curves were plotted using GraphPad Prism 8.0 software and values were presented as mean t SEM.

[5] = tested on: OPM2 tumor xenograft; test: In vivo efficacy, OPM2 tumor xenograft in SCID beige mice; set-up: species or system CB17 SCID beige mice; details: Experiment II, FIG. 4
Protocol: as §5, §6, §7, §8
Mice were euthanized when tumor size reached 2000 mm^3. […]
Raw data of tumor measurements were analyzed in Excel. […]

[6] = tested on: K562, MM.1R and NCI-H929; test: In vitro cell viability assay, Example B1, statements over several cell lines; type: cell-based, human; details: AB1 clone versus AB2 clone ADCs
Protocol: (§9) The in vitro efficacies of ADCs anti-BCMA-Compound 1, anti-BCMA-Compound 2, anti-BCMA-Compound 3, anti-BCMA-Compound 4, anti-BCMA-Compound 5, anti-BCMA-Compound 6, anti-BCMA-Compound 7, and anti-BCMA-Compound 8, were evaluated using the following human cancer cell lines: K562, MM.1R and NCI-H929, purchased from the American Type Culture Collection (ATCC; Manassas, VA). The cells were cultured in RPMI-1640 medium (Gibco ThermoFisher; Waltham, MA) supplemented with 10% heat-inactivated fetal bovine serum (FBS: Corning; Corning, NY, USA) and 1× penicillin-streptomycin (Corning) and maintained at 37° C. in a 5% CO2 humidified environment.
The in vitro assays were performed as follows: Tumor cells were harvested by centrifugation at 300 g for 5 minutes and plated into 96-well clear bottom white-walled plates (5,000 to 10,000 cells/well in 50 μL complete medium) and maintained at 37° C. […] After treatment, inhibition of cancer cell growth was determined using the Cell Titer-Glo® 2.0 Cell Viability Assay (Promega; Madison, WI, USA) as described by the manufacturers' protocol. Luminescence was measured using a Perkin-Elmer Envision 2104 Microplate Reader (Waltham, MA).
Data were normalized to non-treated controls using Microsoft Excel (Redmond, WA, USA) and analyzed using GraphPad Prism software (version 8; La Jolla, CA, USA). […]

[7] = tested on: K562 (BCMA −) cells; test: In vitro cell viability assay (Cell Titer-Glo 2.0), Example B1; type: cell-based, human; details: Table 4; 5-day assays; AB1 clone; read-out: EC50 Values, Cell Line K562
Protocol: as §9
The in vitro assays were performed as follows: Tumor cells were harvested by centrifugation at 300 g for 5 minutes and plated into 96-well clear bottom white-walled plates (5,000 to 10,000 cells/well in 50 μL complete medium) and maintained at 37° C. Cells were then treated in duplicate with 50 μL of test articles prepared at 2× final concentration that were serially diluted in complete medium and incubated at 37° C. for up to 120 hrs. After treatment, inhibition of cancer cell growth was determined using the Cell Titer-Glo® 2.0 Cell Viability Assay (Promega; Madison, WI, USA) as described by the manufacturers' protocol. Luminescence was measured using a Perkin-Elmer Envision 2104 Microplate Reader (Waltham, MA).
Data were normalized to non-treated controls using Microsoft Excel (Redmond, WA, USA) and analyzed using GraphPad Prism software (version 8; La Jolla, CA, USA). Half-maximal effective concentrations (EC50) were derived from dose response curves were generated using non-linear regression analysis fit to a 4-parameter logistic equation.

[8] = Table 7, 120-hour (5-day) assay, AB1 clone

Molecule	EC50 [1]	EC50 [2, 8]	EC50 [3, 8]	tumor regression / elimination ([4]; Experiment I, FIG. 3, all regimens)	tumor growth ([4]; Experiment I, FIG. 3, 8 mg/kg once, 4 mg/kg Q1W×2, 2 mg/kg biw×4, start ~400 mm^3)	tumor regression / elimination ([4]; Experiment III, FIG. 5, high doses)	tumor growth ([4]; Experiment III, FIG. 5, 1, 2, 4, and 8 mg/kg once)	tumor regression / elimination ([5]; high-dose regimen)	tumor growth ([5]; i.p., 2 mg/kg biw×4 and 0.67 mg/kg biw×4)	activity against K562 cells ([2]; 5-day assays, FIG. 8)	effect on NCI-H929 cell viability ([3]; 5-day assays, FIG. 8)	relative potency, comparison of Table 5 and Table 6 [6]	EC50 [7]
CC[C@H](C)[C@@H]([C@@H](CC(=O)N1CCC[C@H]1[C@H](OC)[C@@H](C)C(=O)N[C@H](CN=[N+]=[N-])Cc1ccc(NC(C)C)cc1)OC)N(C)C(=O)[C@@H](NC(=O)[C@H](C(C)C)N(C)C)C(C)C [D3, reference compound]	0.88 to 1.53 nM	1.52 nM	1.08 nM	–	–	–	–	–	–	–	–	–	–
B1	–	–	–	induced dramatic and prolonged tumor regressions and eliminated all tumors in about two weeks after initial treatments	significantly inhibited tumor growth	induced dramatic and prolonged tumor regressions and eliminated all tumors in about two weeks after initial treatments	significantly inhibited tumor growth in a dose-dependent manner	induced dramatic and prolonged tumor regressions and eliminated all tumors in about two weeks after initial treatments	significantly and dose-dependently inhibited tumor growth	did not show activity	dose-dependently reduced	most potent	> 100 nM
